IntAct's records for PubMed 31515488

B1: Hyaluronan mediated motility receptor (Homo sapiens), O75330 (parent)
chain: MSFPKAPLKRFNDPSGCAPSPGAYDVKTLEVLKGPVSFQKSQRFKQQKESKQNLNVDKDTTLPASARKVKSSESKESQKNDKDLKILEKEIRVLLQERGAQDRRIQDLETELEKMEARLNAALREKTSLSANNATLEKQLIELTRTNELLKSKFSENGNQKNLRILSLELMKLRNKRETKMRGMMAKQEGMEMKLQVTQRSLEESQGKIAQLEGKLVSIEKEKIDEKSETEKLLEYIEEISCASDQVEKYKLDIAQLEENLKEKNDEILSLKQSLEENIVILSKQVEDLNVKCQLLEKEKEDHVNRNREHNENLNAEMQNLKQKFILEQQEREKLQQKELQIDSLLQQEKELSSSLHQKLCSFQEEMVKEKNLFEEELKQTLDELDKLQQKEEQAERLVKQLEEEAKSRAEELKLLEEKLKGKEAELEKSSAAHTQATLLLQEKYDSMVQSLEDVTAQFESYKALTASEIEDLKLENSSLQEKAAKAGKNAEDVQHQILATESSNQEYVRMLLDLQTKSALKETEIKEITVSFLQKITDLQNQLKQQEEDFRKQLEDEEGRKAEKENTTAELTEEINKWRLLYEELYNKTKPFQLQLDAFEVEKQALLNEHGAAQEQLNKIRDSYAKLLGHQNLKQKIKHVVKLKDENSQLKSEVSKLRCQLAKKKQSETKLQEELNKVLGIKHFDPSKAFHHESKENFALKTPLKEGNTNCYRAPMECQESWK
B2: Pre-B-cell leukemia transcription factor 4 (Homo sapiens), Q9BYU1 (parent)
chain: MAAPPRPAPSPPAPRRLDTSDVLQQIMAITDQSLDEAQARKHALNCHRMKPALFSVLCEIKEKTVVSIRGIQDEDPPDAQLLRLDNMLLAEGVCRPEKRGRGGAVARAGTATPGGCPNDNSIEHSDYRAKLSQIRQIYHSELEKYEQACREFTTHVTNLLQEQSRMRPVSPKEIERMVGAIHGKFSAIQMQLKQSTCEAVMTLRSRLLDARRKRRNFSKQATEVLNEYFYSHLNNPYPSEEAKEELARKGGLTISQVSNWFGNKRIRYKKNMGKFQEEATIYTGKTAVDTTEVGVPGNHASCLSTPSSGSSGPFPLPSAGDAFLTLRTLASLQPPPGGGCLQSQAQGSWQGATPQPATASPAGDPGSINSSTSN
partner: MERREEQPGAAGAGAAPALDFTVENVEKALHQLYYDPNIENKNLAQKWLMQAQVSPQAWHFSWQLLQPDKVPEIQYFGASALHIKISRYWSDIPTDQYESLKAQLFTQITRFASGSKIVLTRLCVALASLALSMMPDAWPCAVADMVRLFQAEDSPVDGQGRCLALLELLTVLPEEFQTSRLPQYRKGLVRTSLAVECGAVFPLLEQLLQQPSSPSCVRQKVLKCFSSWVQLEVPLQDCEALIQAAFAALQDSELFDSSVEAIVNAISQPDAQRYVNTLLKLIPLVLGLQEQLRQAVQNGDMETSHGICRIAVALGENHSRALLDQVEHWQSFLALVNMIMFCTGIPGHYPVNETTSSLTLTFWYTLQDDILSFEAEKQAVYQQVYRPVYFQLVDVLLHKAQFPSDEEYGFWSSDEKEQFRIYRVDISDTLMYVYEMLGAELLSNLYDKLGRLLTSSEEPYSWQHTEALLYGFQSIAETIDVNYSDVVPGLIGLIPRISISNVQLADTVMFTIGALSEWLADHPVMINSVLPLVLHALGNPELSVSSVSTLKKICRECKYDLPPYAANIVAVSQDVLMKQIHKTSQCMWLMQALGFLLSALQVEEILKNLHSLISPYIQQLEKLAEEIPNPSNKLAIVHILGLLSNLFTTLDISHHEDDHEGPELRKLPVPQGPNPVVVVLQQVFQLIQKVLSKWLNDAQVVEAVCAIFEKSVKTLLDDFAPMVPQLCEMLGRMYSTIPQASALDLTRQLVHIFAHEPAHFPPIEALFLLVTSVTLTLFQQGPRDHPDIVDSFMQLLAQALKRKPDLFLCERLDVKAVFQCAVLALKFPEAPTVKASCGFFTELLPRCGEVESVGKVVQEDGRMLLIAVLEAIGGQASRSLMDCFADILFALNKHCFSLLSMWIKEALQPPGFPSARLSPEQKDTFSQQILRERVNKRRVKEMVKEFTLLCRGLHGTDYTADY
B3: Protein LDOC1 (Homo sapiens), O95751 (parent)
chain: MVDELVLLLHALLMRHRALSIENSQLMEQLRLLVCERASLLRQVRPPSCPVPFPETFNGESSRLPEFIVQTASYMLVNENRFCNDAMKVAFLISLLTGEAEEWVVPYIEMDSPILGDYRAFLDEMKQCFGWDDDEDDDDEEEEDDY
partner: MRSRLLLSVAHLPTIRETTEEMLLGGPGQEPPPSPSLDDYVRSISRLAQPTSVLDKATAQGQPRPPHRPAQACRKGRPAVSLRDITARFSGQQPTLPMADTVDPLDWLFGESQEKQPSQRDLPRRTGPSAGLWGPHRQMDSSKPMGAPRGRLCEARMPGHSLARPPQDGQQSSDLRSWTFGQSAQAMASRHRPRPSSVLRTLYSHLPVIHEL
B4: LHFPL tetraspan subfamily member 5 protein (Homo sapiens), Q8TAF8 (parent)
chain: MVKLLPAQEAAKIYHTNYVRNSRAVGVMWGTLTICFSVLVMALFIQPYWIGDSVNTPQAGYFGLFSYCVGNVLSSELICKGGPLDFSSIPSRAFKTAMFFVALGMFLIIGSIICFSLFFICNTATVYKICAWMQLAAATGLMIGCLVYPDGWDSSEVRRMCGEQTGKYTLGHCTIRWAFMLAILSIGDALILSFLAFVLGYRQDKLLPDDYKADGTEEV
B5: Alpha-taxilin (Homo sapiens), P40222 (parent)
chain: MKNQDKKNGAAKQSNPKSSPGQPEAGPEGAQERPSQAAPAVEAEGPGSSQAPRKPEGAQARTAQSGALRDVSEELSRQLEDILSTYCVDNNQGGPGEDGAQGEPAEPEDAEKSRTYVARNGEPEPTPVVNGEKEPSKGDPNTEEIRQSDEVGDRDHRRPQEKKKAKGLGKEITLLMQTLNTLSTPEEKLAALCKKYAELLEEHRNSQKQMKLLQKKQSQLVQEKDHLRGEHSKAVLARSKLESLCRELQRHNRSLKEEGVQRAREEEEKRKEVTSHFQVTLNDIQLQMEQHNERNSKLRQENMELAERLKKLIEQYELREEHIDKVFKHKDLQQQLVDAKLQQAQEMLKEAEERHQREKDFLLKEAVESQRMCELMKQQETHLKQQLALYTEKFEEFQNTLSKSSEVFTTFKQEMEKMTKKIKKLEKETTMYRSRWESSNKALLEMAEEKTVRDKELEGLQVKIQRLEKLCRALQTERNDLNKRVQDLSAGGQGSLTDSGPERRPEGPGAQAPSSPRVTEAPCYPGAPSTEASGQTGPQEPTSARA
partner: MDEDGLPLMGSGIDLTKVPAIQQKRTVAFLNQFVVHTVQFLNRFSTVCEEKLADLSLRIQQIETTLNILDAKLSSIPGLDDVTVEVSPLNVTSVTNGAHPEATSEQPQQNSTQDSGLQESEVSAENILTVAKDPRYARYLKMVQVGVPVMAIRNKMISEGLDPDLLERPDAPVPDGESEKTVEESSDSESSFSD
B6: Ubiquitin-conjugating enzyme E2 E3 (Homo sapiens), Q969T4 (parent)
chain: MSSDRQRSDDESPSTSSGSSDADQRDPAAPEPEEQEERKPSATQQKKNTKLSSKTTAKLSTSAKRIQKELAEITLDPPPNCSAGPKGDNIYEWRSTILGPPGSVYEGGVFFLDITFSSDYPFKPPKVTFRTRIYHCNINSQGVICLDILKDNWSPALTISKVLLSICSLLTDCNPADPLVGSIATQYLTNRAEHDRIARQWTKRYAT
B7: Homeobox protein VENTX (Homo sapiens), O95231 (parent)
chain: MRLSSSPPRGPQQLSSFGSVDWLSQSSCSGPTHTPRPADFSLGSLPGPGQTSGAREPPQAVSIKEAAGSSNLPAPERTMAGLSKEPNTLRAPRVRTAFTMEQVRTLEGVFQHHQYLSPLERKRLAREMQLSEVQIKTWFQNRRMKHKRQMQDPQLHSPFSGSLHAPPAFYSTSSGLANGLQLLCPWAPLSGPQALMLPPGSFWGLCQVAQEALASAGASCCGQPLASHPPTPGRPSLGPALSTGPRGLCAMPQTGDAF
partner: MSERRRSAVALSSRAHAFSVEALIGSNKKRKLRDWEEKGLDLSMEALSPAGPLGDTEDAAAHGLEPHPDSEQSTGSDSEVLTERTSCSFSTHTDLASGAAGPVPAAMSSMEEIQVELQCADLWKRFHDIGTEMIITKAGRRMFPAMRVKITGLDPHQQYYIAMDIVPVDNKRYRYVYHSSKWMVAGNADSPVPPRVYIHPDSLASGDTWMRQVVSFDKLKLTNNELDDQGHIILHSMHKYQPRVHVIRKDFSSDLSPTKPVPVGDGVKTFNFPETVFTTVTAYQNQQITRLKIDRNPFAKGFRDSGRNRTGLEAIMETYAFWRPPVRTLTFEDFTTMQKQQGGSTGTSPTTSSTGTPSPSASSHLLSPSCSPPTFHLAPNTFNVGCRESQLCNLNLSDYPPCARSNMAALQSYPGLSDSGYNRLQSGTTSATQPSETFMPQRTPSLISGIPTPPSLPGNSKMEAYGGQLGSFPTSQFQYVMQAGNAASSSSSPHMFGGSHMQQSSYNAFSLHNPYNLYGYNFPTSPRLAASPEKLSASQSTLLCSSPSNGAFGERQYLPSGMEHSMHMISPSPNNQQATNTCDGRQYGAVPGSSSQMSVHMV

Variants of: B1
Conditions: with morn4_human MORN4, Q8NDC4
Chain of morn4_human MORN4, Q8NDC4 (Q8NDC4 whole entry): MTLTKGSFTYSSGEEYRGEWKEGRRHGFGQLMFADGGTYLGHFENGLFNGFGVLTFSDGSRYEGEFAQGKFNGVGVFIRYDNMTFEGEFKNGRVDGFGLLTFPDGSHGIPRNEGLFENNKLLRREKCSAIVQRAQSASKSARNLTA

Row | effect of a mutation on the interaction | Variant
1 | with no effect | S468G

Variants of: B2
Conditions: with ipo13_human IPO13, O94829

Row | effect of a mutation on the interaction | Variant
2 | with no effect | T283M
3 | with no effect | R327Q
4 | with no effect | T154M

Variants of: B3
Conditions: with depp1_human DEPP1, Q9NTK1

Row | effect of a mutation on the interaction | Variant
5 | disrupting interaction strength | L12H

Variants of: B4
Conditions: with BCL2L13, Q9BXK5
Chain of BCL2L13, Q9BXK5 (Q9BXK5 whole entry): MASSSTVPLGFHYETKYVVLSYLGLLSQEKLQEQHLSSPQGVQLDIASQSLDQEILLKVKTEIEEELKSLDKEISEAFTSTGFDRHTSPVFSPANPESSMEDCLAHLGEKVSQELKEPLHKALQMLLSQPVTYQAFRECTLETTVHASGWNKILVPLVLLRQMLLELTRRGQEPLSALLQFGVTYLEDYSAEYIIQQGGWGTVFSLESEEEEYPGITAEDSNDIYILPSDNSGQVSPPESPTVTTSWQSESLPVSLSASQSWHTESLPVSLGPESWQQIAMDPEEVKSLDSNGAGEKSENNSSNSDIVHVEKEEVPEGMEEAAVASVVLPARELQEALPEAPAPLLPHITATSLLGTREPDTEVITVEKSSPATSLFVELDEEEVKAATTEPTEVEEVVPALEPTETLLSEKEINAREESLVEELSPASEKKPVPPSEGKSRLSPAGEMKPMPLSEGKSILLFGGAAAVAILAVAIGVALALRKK

Row | effect of a mutation on the interaction | Variant
6 | with no effect | K205N

Variants of: B5
Conditions: with wasc3_human WASHC3, Q9Y3C0

Row | effect of a mutation on the interaction | Variant
7 | with no effect | S514R
8 | with no effect | P541S

Variants of: B6
Conditions: with rnf5_human RNF5, Q99942
Chain of rnf5_human RNF5, Q99942 (Q99942 whole entry): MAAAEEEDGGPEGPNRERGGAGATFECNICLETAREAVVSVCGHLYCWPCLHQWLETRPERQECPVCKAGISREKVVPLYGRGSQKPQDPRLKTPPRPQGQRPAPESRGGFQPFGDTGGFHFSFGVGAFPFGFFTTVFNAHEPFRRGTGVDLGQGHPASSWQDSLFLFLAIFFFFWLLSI

Row | effect of a mutation on the interaction | Variant
9 | with no effect | S117T

Variants of: B7
Conditions: with tbx15_human TBX15, Q96SF7

Row | effect of a mutation on the interaction | Variant
10 | with no effect | L42P
11 | with no effect | A226E
